Source: publication doi:10.1101/666776
pKd: −log10 of the molar value.

Test system: Cascade/I-C (Cas5, Cas8c, Cas7 with crRNA) (Bacillus halodurans C-125)
Assay: EMSA?

TACTTCCAATCCAATGCAGGTACCATCGAAAGTAACTCCATCCATAACTAAGCAACCTGTACTAGTAATCGAAAGCTTTTATCCACTTCCAATGTTATTA (double strand) [100 bp target, TTC PAM]
pKd: 6.83
